Consider seven molecules from patent US20170096493A1 (EISAI R AND D MANAGEMENT, published 2017).

As a reminder, the Kd is the concentration at which binding is half-saturated. A higher Kd goes with lower affinity. For orientation: koff means a measure of how fast the partners let go of each other. What is called kon is the second-order rate constant of association. Read a low kon as slower complex formation.

Test [1] addresses T1, Human Notch4-NRR domain Fc fusion protein (human, UniProt Q99466 1046-1445, limits assumed).
T1 construct: Expressed in a CHO cell line, used from culture supernatant; 1 is named; also called Human Notch4-NRR Fusion Protein; not shown: Fc
T1 sequence: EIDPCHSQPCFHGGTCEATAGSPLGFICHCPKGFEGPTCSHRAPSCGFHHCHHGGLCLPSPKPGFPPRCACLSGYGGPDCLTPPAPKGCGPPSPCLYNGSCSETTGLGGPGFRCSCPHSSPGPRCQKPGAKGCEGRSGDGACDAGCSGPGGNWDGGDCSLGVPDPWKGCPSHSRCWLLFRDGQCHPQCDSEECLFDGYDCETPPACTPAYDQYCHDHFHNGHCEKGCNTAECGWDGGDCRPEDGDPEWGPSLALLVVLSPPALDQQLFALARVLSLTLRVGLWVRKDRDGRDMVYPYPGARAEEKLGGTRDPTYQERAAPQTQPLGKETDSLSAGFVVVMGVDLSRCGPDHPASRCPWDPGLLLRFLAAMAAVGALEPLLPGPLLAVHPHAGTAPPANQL
As to the kind of experiment: SPR (Biacore) as for Table 30; Notch4-NRR-Fc captured, antibody injected; averaged, N=9. The method, then:
(§1) Kinetic analysis of further anti-Notch4 inhibitory humanized antibodies was carried out as follows. Human Notch4-NRR domain Fc fusion proteins were expressed with a CHO cell line. The antigen in the culture supernatant was captured by the anti-human Notch4 antibody fixed on a CM5 sensor chip that recognizes different epitopes of human Notch4. The humanized anti-human Notch4 antibody was then injected onto the sensor chip at various concentrations. The interaction and disassociation constants thereof were calculated according to manufacturer's instructions.
For orientation: In SPR one partner is held on a chip, and binding of the other changes the refractive index at the surface.

Test [2] concerns the target Notch4 with a part of the intracellular domain substituted with GAL4 DNA binding domain, on b.end3 reporter …. Put plainly: cell-based or functional assay.
For test [3], the target named is T1, Human Notch4-NRR domain Fc fusion …. As to the kind of experiment: SPR (Biacore) as for Table 30; Notch4-NRR-Fc captured, antibody injected; averaged, N=5. As to the method: as §1
Test [4] has the same target. Put plainly: SPR (Biacore); Notch4-NRR-Fc captured by another anti-Notch4 antibody on CM5, antibody injected. As to the method: as §1
The target is the same in test [5]. As to the kind of experiment: SPR (Biacore) as for Table 30; Notch4-NRR-Fc captured, antibody injected; averaged, N=2. The method, then:
as §1

Test [6] shares this target. As to the kind of experiment: SPR (Biacore) as for Table 30; Notch4-NRR-Fc captured, antibody injected; averaged, N=3. The method, then:
as §1

B1: Mouse anti-human Notch4 monoclonal antibody 6-3-A6 (antibody, V domains shown)
VH: EVQLVESGGGLVQPGGSLKLSCAASGFTFSSYGMSWVRQTPDKRLELVATINSNGGRTYYPDSVKGRFTISRDNAKNTLYLQMSSLKSEDTAMYYCARDQGFAYWGQGTLVTVSA
VL: DIVMTQSHKFMSTSVGDRVSITCKASQDVGTAVAWYQQKPGQSPKLLIYWASTRHTGVPDRFTGSGSGTDFTLTISNVQSEDLADYFCQQYSSYPWTFGGGTKLEIK
notes: Mouse hybridoma antibody; cloned with primers for mouse IgG1 heavy chain and mouse Igκ light chain; also called Original
In test [1], B1 registered a Kd of 0.321 nM, a koff of 0.000742 s⁻¹ and a kon of 2.35e+06 M⁻¹ s⁻¹.

B2: Antibody C (antibody, human IgG2, kappa)
heavy: EVQLVESGGGLVQPGGSLRLSCAASGFTFSSYGMSWVRQAPGKGLELVSTINSNGGRTYYPDSVKGRFTISRDNSKNTLYLQMGSLRAEDMAVYYCARDQGFAYWGQGTLVTVSSASTKGPSVFPLAPCSRSTSESTAALGCLVKDYFPEPVTVSWNSGALTSGVHTFPAVLQSSGLYSLSSVVTVPSSNFGTQTYTCNVDHKPSNTKVDKTVERKCCVECPPCPAPPAAAPSVFLFPPKPKDTLMISRTPEVTCVVVDVSHEDPEVQFNWYVDGVEVHNAKTKPREEQFNSTFRVVSVLTVVHQDWLNGKEYKCKVSNKGLPAPIEKTISKTKGQPREPQVYTLPPSREEMTKNQVSLTCLVKGFYPSDIAVEWESNGQPENNYKTTPPMLDSDGSFFLYSKLTVDKSRWQQGNVFSCSVMHEALHNHYTQKSLSLSPG
light: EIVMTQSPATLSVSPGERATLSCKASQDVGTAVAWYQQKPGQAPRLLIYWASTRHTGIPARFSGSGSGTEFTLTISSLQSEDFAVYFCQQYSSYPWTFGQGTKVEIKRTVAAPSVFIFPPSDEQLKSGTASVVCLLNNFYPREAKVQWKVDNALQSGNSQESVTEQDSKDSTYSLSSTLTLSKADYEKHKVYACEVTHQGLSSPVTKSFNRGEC
notes: Humanized IgG2 (V234A, G237A)/κ; also called HK2L4 (Lys-); HK2L4(Lys-)
Take B2: the “% of Control (relative luminescence), Notch4-GAL4 luciferase reporter assay, antibody at 10 µg/ml” value (“% of Control (relative luminescence)” below) in test [2] is -9.9 % of Control. Also, in test [3], the equilibrium dissociation constant (Kd) is 0.715 nM, the koff stood at 0.00127 s⁻¹ and the association rate constant (kon) amounted to 1.81e+06 M⁻¹ s⁻¹. In test [4], this molecule had a Kd of 0.556 nM, a koff of 0.00106 s⁻¹ and an association rate constant (kon) of 1.91e+06 M⁻¹ s⁻¹.

B3: Antibody G (antibody, human IgG2, kappa)
heavy: EVQLVESGGGLVQPGGSLRLSCAASGFTFSSYGMSWVRQAPGKGLELVATINSNGGRTYYPDSVKGRFTISRDNSKNTLYLQMGSLKAEDMAVYYCARDQGFAYWGQGTLVTVSSASTKGPSVFPLAPCSRSTSESTAALGCLVKDYFPEPVTVSWNSGALTSGVHTFPAVLQSSGLYSLSSVVTVPSSNFGTQTYTCNVDHKPSNTKVDKTVERKCCVECPPCPAPPAAAPSVFLFPPKPKDTLMISRTPEVTCVVVDVSHEDPEVQFNWYVDGVEVHNAKTKPREEQFNSTFRVVSVLTVVHQDWLNGKEYKCKVSNKGLPAPIEKTISKTKGQPREPQVYTLPPSREEMTKNQVSLTCLVKGFYPSDIAVEWESNGQPENNYKTTPPMLDSDGSFFLYSKLTVDKSRWQQGNVFSCSVMHEALHNHYTQKSLSLSPG
light: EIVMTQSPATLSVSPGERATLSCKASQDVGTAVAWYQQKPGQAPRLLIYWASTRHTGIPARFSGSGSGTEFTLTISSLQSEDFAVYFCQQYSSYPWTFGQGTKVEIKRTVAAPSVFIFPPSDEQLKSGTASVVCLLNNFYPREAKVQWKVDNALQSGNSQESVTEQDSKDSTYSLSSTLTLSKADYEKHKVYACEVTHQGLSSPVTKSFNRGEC
notes: Humanized IgG2 (V234A, G237A)/κ; also called HK3L4 (Lys-); HK3L4(Lys-)
Turning to B3, in test [2], the “% of Control (relative luminescence)” value was 13 % of Control. Besides, in test [3], the Kd turned out to be 0.76 nM, the dissociation rate constant (koff) is 0.00124 s⁻¹ and the on-rate (kon) was 1.86e+06 M⁻¹ s⁻¹. Also, in test [4], binding was characterised by a dissociation constant (Kd) of 0.633 nM, the koff came to 0.00111 s⁻¹ and the kon is 1.78e+06 M⁻¹ s⁻¹.

B4: Antibody A (antibody, human IgG2, kappa)
heavy: EVQLVESGGGLVQPGGSLRLSCAASGFTFSSYGMSWVRQAPGKGLELVSTINSNGGRTYYPDSVKGRFTISRDNSKNTLYLQMGSLRAEDMAVYYCARDQGFAYWGQGTLVTVSSASTKGPSVFPLAPCSRSTSESTAALGCLVKDYFPEPVTVSWNSGALTSGVHTFPAVLQSSGLYSLSSVVTVPSSNFGTQTYTCNVDHKPSNTKVDKTVERKCCVECPPCPAPPAAAPSVFLFPPKPKDTLMISRTPEVTCVVVDVSHEDPEVQFNWYVDGVEVHNAKTKPREEQFNSTFRVVSVLTVVHQDWLNGKEYKCKVSNKGLPAPIEKTISKTKGQPREPQVYTLPPSREEMTKNQVSLTCLVKGFYPSDIAVEWESNGQPENNYKTTPPMLDSDGSFFLYSKLTVDKSRWQQGNVFSCSVMHEALHNHYTQKSLSLSPG
light: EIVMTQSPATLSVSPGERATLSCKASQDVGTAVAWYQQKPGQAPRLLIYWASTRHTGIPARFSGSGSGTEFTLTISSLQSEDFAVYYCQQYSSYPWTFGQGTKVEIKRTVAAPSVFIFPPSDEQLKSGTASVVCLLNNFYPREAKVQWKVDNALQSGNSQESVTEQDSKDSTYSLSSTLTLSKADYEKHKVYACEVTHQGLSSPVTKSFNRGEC
notes: Humanized IgG2 (V234A, G237A)/κ; also called HK2L3 (Lys-); HK2L3(Lys-)
Turning to B4, the “% of Control (relative luminescence)” value in test [2] was 0.1 % of Control. In test [5], this molecule gave a Kd of 0.395 nM, a koff of 0.00124 s⁻¹ and a kon of 5.05e+06 M⁻¹ s⁻¹. In test [4], this molecule displayed a Kd of 0.555 nM, a koff of 0.000889 s⁻¹ and an on-rate (kon) of 1.62e+06 M⁻¹ s⁻¹.

B5: Antibody E (antibody, human IgG2, kappa, V domains shown)
VH: EVQLVESGGGLVQPGGSLRLSCAASGFTFSSYGMSWVRQAPGKGLELVSTINSNGGRTYYPDSVKGRFTISRDNSKNTLYLQMGSLRAEDMAVYYCARDQGFAYWGQGTLVTVSS
VL: EIVMTQSPATLSVSPGERATLSCKASQDVGTAVAWYQQKPGQSPRLLIYWASTRHTGIPARFSGSGSGTEFTLTISSLQSEDFAVYFCQQYSSYPWTFGQGTKVEIKR
notes: Humanized IgG2 (V234A, G237A)/κ; also called HK2L6 (Lys-); HK2L6(Lys-)
In test [6], B5 had a dissociation constant Kd of 0.62 nM, an off-rate constant (koff) of 0.00115 s⁻¹ and a kon of 1.87e+06 M⁻¹ s⁻¹. Besides, the “% of Control (relative luminescence)” value in test [2] was 5 % of Control. In addition, in test [4], binding was put at a Kd of 0.519 nM, the koff was 0.00115 s⁻¹ and the kon worked out at 2.23e+06 M⁻¹ s⁻¹.

B6: Antibody F (antibody, human IgG2, kappa)
heavy: EVQLVESGGGLVQPGGSLRLSCAASGFTFSSYGMSWVRQAPGKGLELVSTINSNGGRTYYANSVKGRFTISRDNSKNTLYLQMGSLRAEDMAVYYCARDQGFAYWGQGTLVTVSSASTKGPSVFPLAPCSRSTSESTAALGCLVKDYFPEPVTVSWNSGALTSGVHTFPAVLQSSGLYSLSSVVTVPSSNFGTQTYTCNVDHKPSNTKVDKTVERKCCVECPPCPAPPAAAPSVFLFPPKPKDTLMISRTPEVTCVVVDVSHEDPEVQFNWYVDGVEVHNAKTKPREEQFNSTFRVVSVLTVVHQDWLNGKEYKCKVSNKGLPAPIEKTISKTKGQPREPQVYTLPPSREEMTKNQVSLTCLVKGFYPSDIAVEWESNGQPENNYKTTPPMLDSDGSFFLYSKLTVDKSRWQQGNVFSCSVMHEALHNHYTQKSLSLSPG
light: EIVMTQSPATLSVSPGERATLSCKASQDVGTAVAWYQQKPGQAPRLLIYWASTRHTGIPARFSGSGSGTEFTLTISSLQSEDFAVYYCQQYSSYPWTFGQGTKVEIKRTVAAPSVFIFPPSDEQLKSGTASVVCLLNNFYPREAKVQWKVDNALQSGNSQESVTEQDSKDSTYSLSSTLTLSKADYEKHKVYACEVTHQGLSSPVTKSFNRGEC
notes: Humanized IgG2 (V234A, G237A)/κ; also called HA2L3 (Lys-); HA2L3(Lys-)
As for B6, the “% of Control (relative luminescence)” value in test [2] is 17 % of Control. In test [5], binding was characterised by a dissociation constant (Kd) of 0.434 nM, the dissociation rate constant (koff) came out at 0.000894 s⁻¹ and the on-rate (kon) stood at 3.5e+06 M⁻¹ s⁻¹. In test [4], this molecule came in with a Kd of 0.982 nM, an off-rate constant (koff) of 0.00136 s⁻¹ and an on-rate constant (kon) of 1.55e+06 M⁻¹ s⁻¹.

B7: Antibody D (antibody, human IgG2, kappa)
heavy: EVQLVESGGGLVQPGGSLRLSCAASGFTFSSYGMSWVRQAPGKGLELVATINSNGGRTYYPDSVKGRFTISRDNSKNTLYLQMGSLKAEDMAVYYCARDQGFAYWGQGTLVTVSSASTKGPSVFPLAPCSRSTSESTAALGCLVKDYFPEPVTVSWNSGALTSGVHTFPAVLQSSGLYSLSSVVTVPSSNFGTQTYTCNVDHKPSNTKVDKTVERKCCVECPPCPAPPAAAPSVFLFPPKPKDTLMISRTPEVTCVVVDVSHEDPEVQFNWYVDGVEVHNAKTKPREEQFNSTFRVVSVLTVVHQDWLNGKEYKCKVSNKGLPAPIEKTISKTKGQPREPQVYTLPPSREEMTKNQVSLTCLVKGFYPSDIAVEWESNGQPENNYKTTPPMLDSDGSFFLYSKLTVDKSRWQQGNVFSCSVMHEALHNHYTQKSLSLSPG
light: DIQMTQSPSSLSASVGDRVTITCKASQDVGTAVAWYQQKPGKSPKLLIYWASTRHTGVPSRFSGSGSGTDFTLTISSLQPEDVATYFCQQYSSYPWTFGQGTKVEIKRTVAAPSVFIFPPSDEQLKSGTASVVCLLNNFYPREAKVQWKVDNALQSGNSQESVTEQDSKDSTYSLSSTLTLSKADYEKHKVYACEVTHQGLSSPVTKSFNRGEC
notes: Humanized IgG2 (V234A, G237A)/κ; also called HK3L5 (Lys-); HK3L5(Lys-)
Regarding B7, in test [2], the “% of Control (relative luminescence)” value was 21 % of Control. In test [3], binding was characterised by a dissociation constant (Kd) of 0.529 nM, the off-rate (koff) worked out at 0.00109 s⁻¹ and the kon worked out at 2.1e+06 M⁻¹ s⁻¹. Moreover, in test [4], the dissociation constant Kd turned out to be 0.475 nM, the off-rate constant (koff) amounted to 0.000863 s⁻¹ and the association rate constant (kon) stood at 1.82e+06 M⁻¹ s⁻¹.
